The results in this text go back to patent publication US20240417469A1.

Experiment [1] has as its target recombinant CD3D&E protein (human CD3-his tag) (human) (UniProt P04234). Nature of the experiment: SPR Biacore, Ab captured on Protein A. Background: Surface plasmon resonance follows binding to a sensor surface in real time, without labels.
In experiment [2] the target is human CD3 on cells (human PBMC; Jurkat TCR/CD3 NFAT reporter cells) (human) (UniProt P07766). Kind of experiment: FACS on human PBMC, PE anti-human IgG Fc secondary, geometric mean fluorescence.

As usually defined, the Kd is the concentration at which binding is half-saturated. A word on the koff: it is the first-order rate constant of dissociation. What is called kon is a measure of how fast the partners come together. As usually defined, the EC50 (read off the curve) is the concentration that produces a half-maximal response.

Chain of recombinant CD3D&E protein (human CD3-his tag) (human) (P04234 22-105 limits assumed, chain 1 of 2): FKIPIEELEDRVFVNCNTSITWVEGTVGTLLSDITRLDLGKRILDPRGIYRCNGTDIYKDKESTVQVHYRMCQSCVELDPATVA
Chain of recombinant CD3D&E protein (human CD3-his tag) (human) (P07766 23-126 limits assumed, chain 2 of 2, further chain): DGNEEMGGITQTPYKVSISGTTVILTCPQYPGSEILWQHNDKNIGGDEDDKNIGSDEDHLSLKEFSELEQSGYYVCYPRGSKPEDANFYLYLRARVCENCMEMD
Chain of human CD3 on cells (human PBMC; Jurkat TCR/CD3 NFAT reporter cells) (human) (P07766 23-207, chain 1 of 3): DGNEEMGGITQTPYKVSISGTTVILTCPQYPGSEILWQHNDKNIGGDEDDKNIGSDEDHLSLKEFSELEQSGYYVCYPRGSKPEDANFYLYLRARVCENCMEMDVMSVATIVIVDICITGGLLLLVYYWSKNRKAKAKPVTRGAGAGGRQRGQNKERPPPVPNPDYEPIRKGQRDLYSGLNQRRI
Chain of human CD3 on cells (human PBMC; Jurkat TCR/CD3 NFAT reporter cells) (human) (P04234 22-171, chain 2 of 3, further chain): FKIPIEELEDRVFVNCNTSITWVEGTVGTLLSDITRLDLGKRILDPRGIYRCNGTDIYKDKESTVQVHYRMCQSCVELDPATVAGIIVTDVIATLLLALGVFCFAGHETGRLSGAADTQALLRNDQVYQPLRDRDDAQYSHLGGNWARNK
Chain of human CD3 on cells (human PBMC; Jurkat TCR/CD3 NFAT reporter cells) (human) (P09693 23-182, chain 3 of 3, further chain): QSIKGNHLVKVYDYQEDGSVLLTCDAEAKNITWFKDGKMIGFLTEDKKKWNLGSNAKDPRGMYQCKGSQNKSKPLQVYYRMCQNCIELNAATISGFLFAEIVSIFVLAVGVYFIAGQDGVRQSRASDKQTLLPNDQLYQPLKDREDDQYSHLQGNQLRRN

For the substance OKT3 (antibody), in experiment [1], the Kd stood at 3.7 nM, the koff came out at 0.00272 s⁻¹ and the association rate constant (kon) amounted to 735000 M⁻¹ s⁻¹. Besides, in experiment [2], the EC50 (read off the curve) worked out at 0.04 nM.
